Experimental data from the nanobody polyreactivity screen of Harvey et al. (2022).

Test: yeast display, Sf9 membrane polyspecificity reagent, FACS + sequencing; frameworks hold sequencing errors
Method in brief: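 Using colony PCR, genes from sorted yeast display clones were amplified, then sequenced on MiSeq at 2 × 250 and filtered by CDR length. The clones had been stained with 10% biotinylated, detergent-solubilized Sf9 membrane reagent for 1 hour at 4 °C and sorted by FACS into low and high (top ~1%) gates on anti-HA and streptavidin fluorescence. Polyreactivity labels come from the gate of origin.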

Sequence	polyreactivity (PSR sort gate)
QVQLVESGGGLVQAGGSLRLSCAASGRTFVRYAMGWYRQAPGKERELVAAITSGGSTYADSVKGRFTISRDNAKNTVYLQMNSLKPEDTAVYYCAARRYPSYGSWGQGTQVTVSS	low polyreactivity
QVQLVESGGGLVQAGGSLRLSCAASGISFRRYTMGSYRQAPGKERELVDTISLSDGNTYYADSVKGRFTISRDNAKNTVYLQMNSMKPEDTAVYYCNARHTWHQSYDYWGQGTQVSVSS	low polyreactivity
QVQLVESGGGLVQAGGSLRLSCAASGFTFYYYAMGWYRQAPGKERELVAAISIGGSTYYAGSVKGRFTISRHNEKNTVYLQMNSLKPEDTAVYYCNVVFTYWPPGTARYDYSGQGTQVTVSS	high polyreactivity
QVQLVESGGGLVQAGGSLRLSCAASGSTFAYYAMGWYRQAPGKERELVAAITWSGGSTSYADSVKGRFTISRDNAKNTVYLQMNSLKPEDTGVYYCNADDKPLDWREYNYWGQGTQVTVSS	low polyreactivity
QVQLVESGGGLVQAGGSLRLSCAASGFTFNFYAMGWYRQAPGKERELVASITSSGARTYYADSVKGRFTISRDNAKNSVYLQMNSLKPEDTAVYYCAARVYRYSASRAYDYWGQGTQVTVSS	high polyreactivity
QVQLVESGGGLVQAGGSLRLSCAASGFIFVNYMGWYRQAPGKERELVAAISRGGSTNYADSVKGRFTISRDNAKNTVYLQMNSLKPEDTAVYYCAAETWYSGYTYDYWGQGTQVTVSS	low polyreactivity
QVQLVESGGGLVQAGGSLRLSGAATGSIIHPYAMGWYRQAPGKERELLAAISKSGGNTYYADSVKGRITISRDNAKNTVYLQMNSLKPEDTAVYYCAALDYWGQGTQVTVSS	low polyreactivity
QVQLVESGGGLVQAGGSLRLSCAASGFTFDENAMGWYRQAPGINYSGASTYYADSVKGRFTISRDNAKNTVYLQMNSLKPDDTAVYYCAAEVVAQMNYWGQGTQVTVSS	low polyreactivity
QVQLVESGGGLVQAGGSLRLSCAASGIIFDSYTMGWYRQAPGKERELVAGISGSGGSTDYADSVKGRFTISRDNAKNTFYLQMNSLKPEDTAVYYCAARPTPYRDDADEYWGQGTQVTVSS	low polyreactivity
QVQLVESGGGLVQAGGSLRLSCAASGSTLRGNAMGWYRQAPGKERELVAAISWSGGSTYYADSVKGRFTISRDNAKNTVYLQMNSLKPEDTAVYYRATASPSTRYGRLGDYWGQGTQVTVSS	low polyreactivity
QVQLVESGGGLVQAGVSLRLSCAGSGSIFRSYTMGWYRQAPGKERELVAAISYSGGRTYYADSVMGRFTISRDNAKNTVYLQLNSLKPEDTAVYYCARRYYVTGCVGYDYWGQGTQVTVSS	high polyreactivity
QVQLVESGGGLVQAGGSLRLSCAASGFTFYNNAMGGYRQAPGKERELVAVITSNGGRTYYADSVKGRFTISRDNAKNTVYLQMNSLKPEDTAVYYCAKRGYGYGDGAYYYWGQGTQVTVSS	low polyreactivity
QVQLVESGGGLVQAGGSLRLSCAASGFTFRFYAMGWYRQAPAKERELVAAISRGGSTYYADSVKGRFTISRDNAKYTVYLQMNSLKPEDTAVFYCAKRGRYGDYWGQGTLVTVSS	high polyreactivity
QVQLVESGGGLVQAGGSLRLSCAPSGSIFNYNIGSYRQAPVKERELVAAVSTNYADSVKGRFTISRDNAKNTVYIQMNSLKPADSAVYYCGVTPEKSCDEYDYWGQGTQVTVSS	low polyreactivity
QVQLVESGGGLVKAGGSLRLSCAASGRIFRYYVMGWYRQAPGKERELVASISWRGTSTYYADSVKGRFTISRDNAKNTVYLQMNSLKPEDTAVYYCNAARPGKNYDSWGQGTQVTVSS	high polyreactivity
QVQLVESGGGLVQAGVSLRLSCAASGSLFSANAMGWYRQAPGKERELVASITGDGSTNYADSVKGRFTISRDNAMNTVYLQMNSLKPEDTAVYYCAADIGSWYDYWGQGTQVTVSS	low polyreactivity
QVQLVESGGCLVQAGGSLRLSCAASGPTFSKANAMGWYRQAPGKERELVAAITDGGSTYADSVKGRFTISRDNAKNTVYLQMYSMKPEDTAVYYCAKDTEVFYDSSYDYWGHGTQVTVSS	low polyreactivity
QVQLVESGGGLVQAGGSLRLSCAASGSTFYGYTMGWSRQAPGKERELVAVITSGGSTYYADSVKGRFTISRDNAKNTVYLQMNSLKPDDTAVYYCAQRYGYPAYGRPWRIGRTYDYWGQGTQVTVSS	low polyreactivity
QVQLVESGGGLVQAGGSLRLSCAASGFTFYFYAMGWYRQAPGKETELVAGISRGGSTTYADSVTGRFTISRDNAKNTVYLQRNSLKPHDTAVYYCAVGYDIVRYSYSPFYRYDYWGQGTQVTVSS	low polyreactivity
QLQLVESGGGLVQAGGSLRLSCAASGYMGWYRQAPGKERELVATISGSGGSTYYADSVKGRFTISRDNAKNTVYLQMNSLKPEDTAVYYCTTEIWGVNRSGYDYWGQGTQVTVSS	low polyreactivity
QVQLVETGGGLVQAGGSLRLSCAASGITIRPYTMGWYRQAPGKERELVARISRRGGSTYYADSVKGRFTISRDNAKNTVYLQMNSLKPEDTAVYYCATRSRAHISPYDYWGQGTQVTVSS	high polyreactivity
QVQLVESGGGLYQARGSLRLSCAASGSIFLDNAKGWYRQAPGKERELVAAISSGGNTNYADSVKGRFTISRDNAKNTVYLQINSLKPEDTAVYYCAADPTKWHYYLPRYYYWGQGTQVTLSS	low polyreactivity

Sequence	polyreactivity (PSR sort gate)
QVKLVESGGGLVQSGGSLRLTSAASGSTFPRYAMGWYRQAPGKEREFVAVIWSGGSTYYADSVKGRLTISRDNAKNTVYLQMNSLKPEDTAVYYCAAEYHTLSLDSGYATHDYWGQGTQVTVSS	low polyreactivity
QVQLVESGGGLVQAGGSLRLSCAASGFTFYNYAKGWYIQAPGNERELVAAITSRGGSTYYADSVKGRFTISRDNAKNTVYLQMNSLKPEDTAVYYCAAGYVHYGWFELDYWGQGTQVTVSS	low polyreactivity
QVQRVESGGGLVQAGGSLRLSCSASGFIFQLSAMGWYRQAPGTERELVAAITWRGGSTYYADSVKGRFTISRDNAKNTVYLQMYSLKPEDTAVYYCAASASWRGQRVPYGYWGQGTQVTVSS	high polyreactivity
QVQLVESGGGLVQAGGSLRLSCAASGRTFYLYTMGWYIQAPGKERELVAAISRGGRTYADSVKGRFTISRDNAKNTVYLQMNSLKPEDTAVYYCAAESVYHGWSYQHGKGDYWGQGTQVTVSS	low polyreactivity
QVQLVESGGGLVQAGGSLRLSCAASGFTFRKYAMGLYRQAPGKERELVASITSGGSTYYADSVKGRFTISRDNAKNTVYLQMNSLKPEDNAVYYCNAVKATLASGRLRGAYYYWGQGNQVTVSS	high polyreactivity
QVQLHESGCVLVQAGGSLRLRCAASRNISGSSDLGWYHQAPGKEREFVASITSGGTTYYADSVKVRFTISRDNAKNTVYLQMNSLKPEDTAVYYCAVGDPADAEFGYWGQGTQVTVSS	low polyreactivity
QVQLVESGGGLVQAGGSLRLSCPASGFTFVRYAMGWYRQAPGKERELVAAISSSGSSTYYADSVKGRFTISRDNAKYTVYLQMNSLKPEDSAVYYCNARAGRGEDYWGQGTQVTVSS	low polyreactivity
QVQHVESGGGLVQAGGSLRLSCAASGRIFHYYAMGWYRQAPGKERELVAAITFRGGNTYADSVKGRFTISRDNAKNTVYLQMNSLKPEDTAFYYCADSRLSGYYSRYGYWGQGTQVTVSS	high polyreactivity
QVQLVESGGGLVQAGGSLRLSCAASGRIFGINVMGWYRPAPGKERELVARITGRGGRTYYADSVKGRFTMSRDNAKNTVYLQMNSLKPEDTAVYYCAADARYEAYDYWGQGTQVTVSS	high polyreactivity
QVQLVESGGGLVQAGGSLRLSCAASGSIFWYYAMGWYRQAPGKERELVADITSTGGSTYYADSVKGRFTISRDNAKNTVYLQMNSLKPEDTAVYYCAADNTYSEEDYWGQGTQVNVSS	high polyreactivity
QVHLVESAAGLVQAGGSLRLSCDPSGFTFYAYPMGWYSQAPGKEREFVAAISSRGGRTYYADSVKGRFTISRDNAKNTVYLQMNSLKPEDTAVYYCNVPYYSFRALSSYYWGQGTQVTVSS	high polyreactivity
QVQLVESGGGLVQAGGSLRLSCAASGSIFRYAMGWYRQAPGKERELVATISESGGRTYYADSVKGRFTISRDNANNTVYLQMNSLKPEDTAVYYCAADLKYYYGYRPWFQGGYWGQGTQVTVSS	low polyreactivity
QVQLVESGGGLVQAGGSLRLSCSDSGFTFARYTMGWYRQPPGKESELVAGISRSTGRTYYADSVKGLFTISRDNAKNTVYLQMNSLKPEDTAVYYCAARATRSLSRSMDYWGQGTQVTVSS	high polyreactivity
QVQLVESGGGLVQAGGSLRLSCAASGRTFRYYTMGWYRQAPGKEREFVAAISSTGGTYYADSVKGRFTISRDNAKNTVYLQMNSLKPEDTAVYYCAAETEDWNEYNYWGQGTQVTVSS	low polyreactivity
QVQLVESGGGLVQAGGSLRLSCAASGRTFRSYAMGWYRQAPGKERELVAAITSGGSTYYADSVKGRFTISRDNAKNTVYLQMNSLKPEDTAVYYCARGDHVGSAGYDYWGQGTQVTVSS	low polyreactivity
QVQLVQSGGGLVQAGGSLRLSCAASGSIFGDYAMGWYRQAPGKEREFVARINVSGTSTFYADSVKGRFTISRDNAKNTVYLQMNSLKPEDTAVYYCAARGLPSNYYYYVHGYIMDYWGQGTQVTVSS	low polyreactivity
QVQLVESGGGLVQAGGSLRLSCAASGLTFEDNDMGWYRQAPGKERELVAAISSAGSTSYADSVKGRFTISRDNAKNTVYLQMNSLKPEDTAVYYCAKRYYLYHYDSWGQGTQVTVSS	low polyreactivity
QVQLVESGGGLVQAGGSLRLSCAASGFISAGYAMGWYRQAPGKERELVAAITRTGSTNYADSVKGRFTISRDNAKNTVYLQMNSLKPEDTAVYYCAAGRRGSAGYYRQFGYGYWGQGTQVTVSS	high polyreactivity
QGQLVESGGGLVQAGGSLRLSCAASGRTLQYNAMGWYRPAPGKEWELVAAITSNGGSTYYADSVKGRFPISRDNAKNTVYLQMNSQKPEDTAVYDCAKAYRYVDRGYRLLRYGYWGQGNQVTVSS	high polyreactivity
QVQLVESGGGLVQAGGSLRLSCAASGRIFLTYAMGWYRQAPGKERELVAAISTSGTRTYYADSVKGRFTISRDNAMNTVYLQMNSLKPEDTAVYYCAREKYNYRTYEYWGQGTQVTVSS	high polyreactivity
QVQLVESGGGLVQAGGSLRLSCAASGFTFQYYAMGWYRQAPVKERELVAAINWSGGRTYYADSVKGRFTISRDNAKNTVYLQMNSLKPEDTAVYYCAAPRSFSGGYGYVSYDYWGQGTQVTVSS	high polyreactivity
